Experiment [1] addresses T1, Man9-V3 glycopeptide (Man9GlcNAc2 at N301 and at N332; disulfide bridge between C296 and C331 (cyclized); biotin tag).
T1 peptide: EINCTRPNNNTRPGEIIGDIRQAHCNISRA
Briefly: BLI. A general note: BLI is a label-free optical method that tracks binding on a fibre tip over time.

In experiment [2] the target is T1, Man9-V3 glycopeptide. Briefly: BLI.

Positions count from the first letter of the chain named. Where two headings read alike, the source gives them in different places.

Experimental findings from patent US20210187091A1 (published 2021) are described below.

B1: DH270.5 (antibody, V domains shown)
VH: QVQLVQSGAEVKNPGASVKVSCAPSGYTFTDFYIHWVRLAPGQGLEWLGWMNPKTGRTNQGQNFQGRVIMTRDTSIGTAYMELRSLTSDDTAVYYCVTGAWISDYYDSSYYPNFDHWGQGTLVTVSS
VL: LPVLTQPASVSGSPGQSITISCTGTIYDVGKFDLVSWYQHHPGKAPKYLIYEVKKWPSGVSHRFSGSKSGNTASLTISGLQVEDEADYYCCSFGGSAAVVCGGGTKVTVL
For orientation: Kd means a measure of binding affinity in units of concentration. In turn, B1 registered a Kd in experiment [1] of 281 nM.

B2: DH270.3 (antibody, V domains shown)
VH: B1 VH with V11M, P24A, L48M, Q60N, G61A, S85R, A100G, D104P
VL: B1 VL with L1Q, P2S, V3A, I26S, H40Q, L49M, K54N, V82A, A98T
Molecule B2 yielded a Kd in experiment [1] of 195 nM.

B3: DH270.4 (antibody, V domains shown)
VH: EVQLVQSGAEMKNPGASVKVSCAASGYGFTDFYIHWVRLAPGHGLQWMGWMNPKTGRTNNAQDFQGRVILTRDTSIGTAYMELRRLTSDDTAVYYCVTGGWISPYYDSSYYPNFDHWGQGTLITVSS
VL: QSALTQPASVSGSPGQSITISCTGTSYDVAKFDLVSWFQQHPGKAPKYMIYEVNKWPSGVSHRFSGSKSGNTASLTISGLQAEDEADYYCCSFGGSATVVCGGGTKVTVL
B3 yielded a Kd in experiment [1] of 346 nM.

B4: DH270.IA1 (antibody, V domains shown)
VH: QVQLVQSGAEVKKPGASVKVSCKASGYTFTDYYIHWVRQAPGQGLEWMGWINPNTGRTNYAQKFQGRVIMTRDTSISTAYMELSRLRSDDTAVYYCARGGWIGLYYDSSGYPNFDYWGQGTLVTVSS
VL: QSALTQPASVSGSPGQSITISCTGTSYDVGSYNLVSWYQQHPGKAPKLMIYEVSKRPSGVSNRFSGSKSGNTASLTISGLQAEDEADYYCCSYAGSSTVIFGGGTKLTVL
Molecule B4 gave a Kd in experiment [2] of 3290 nM.

B5: DH270.2 (antibody, V domains shown)
VH: QVQLVQSGAEMKKPGASVRVSCKASGYTFTDYYIHWVRQAPGQGPEWMGWINPSTGRTNSPQKFQGRVIMTRDTSISTAYMDLNRLTSDDTAMYYCTTGGWIGLYSDTSGYPNFDYWGQGTLVTVSS
VL: B4 VL with S26N, A45V, L48Y, M49I, S54N, T98I, V99I, I100F, L110I
With B5, in experiment [1], binding was characterised by a dissociation constant (Kd) of 4770 nM.
